This is an account of results in the supplement of paper PMC10724198.

± gives the standard deviation of the averaged measurements.
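Note: PSI is a weighted mean of sequencing reads over stability bins, variants kept only with over 10 reads, mCherry proximal and sfGFP distal, peptide attached via GGGS linker.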

The series deals with Saccharomyces cerevisiae. Put plainly: protein stability index of tFT-peptide fusion (C-terminal peptide) (PSI (0-1 scale)); higher = more stable (slower turnover). As to conditions: genetic background: wild type; temperature: 30 C.
As to SPGDVVVAVGGG, the protein stability index is 0.6669 ± 0.0037.
Regarding SPGLYGPLSRGM, the protein stability index was 0.684 ± 0.063.
In turn, SPGNLPMSSSLL showed a protein stability index of 0.686 ± 0.022.
Under SPGSVIVSASLL stands 0.651 ± 0.039; under SPHPPPPPSPPP, 0.723 ± 0.059.
Under SPISFIHPHISG stands 0.644 ± 0.017; under SPLDSPPLSSPP, 0.659 ± 0.028.
Under SPLEFPLLPSGV stands 0.7 ± 0.064; under SPLLPPPPSPPL, 0.633 ± 0.081; under SPLPPPLCPPPL, 0.608 ± 0.034.
In the case of SPLPPPPRPPLP, the protein stability index came to 0.691 ± 0.039.
SPLPPSRSVHCA displayed a protein stability index of 0.748 ± 0.072.
SPLPRLPPGPLP gave a protein stability index of 0.68 ± 0.03.
SPLSLSFLLLCL returned a protein stability index of 0.524 ± 0.028.
Under SPLSPAVPSTAL stands 0.742 ± 0.056; under SPLSPPHRHNTT, 0.701 ± 0.017.
Under SPLTCKSLRAQR stands 0.738 ± 0.022.
Under SPPGTCPTIRPS stands 0.664 ± 0.014; under SPPLLLPNLCPC, 0.543 ± 0.023; under SPPLPPPPPFPL, 0.74 ± 0.053.
In turn, SPPLPPTPPVTT yielded a protein stability index of 0.705 ± 0.19.
Under SPPLSFPTLQLF stands 0.625 ± 0.15; under SPPLTLPPYPPP, 0.7149 ± 0.0031.
Under SPPPALPPPRPL stands 0.749 ± 0.031; under SPPPASDHPNPL, 0.648 ± 0.063.
Under SPPPPPAPHPCP stands 0.686 ± 0.03.
SPPPPPLPPSPR registered a protein stability index of 0.713 ± 0.0078.
SPPPPPPRPPPP displayed a protein stability index of 0.691 ± 0.015.
Under SPPPPPPRSPPL stands 0.606 ± 0.0074.
As to SPPPPPVHPSSP, the protein stability index worked out at 0.722 ± 0.019.
Under SPPPPYPSLFPL stands 0.677 ± 0.034.
In turn, SPPPTPLPPPPP had a protein stability index of 0.628 ± 0.094.
Under SPPQTETGAQRP stands 0.666 ± 0.051; under SPPRAGTPTSRP, 0.667 ± 0.097; under SPPRPPRPRYLF, 0.6947 ± 0.0062.
As to SPPSPGLDPVCP, the protein stability index came out at 0.66 ± 0.089.
In turn, SPPSRLRPAILP returned a protein stability index of 0.668 ± 0.032.
Under SPPTCPNQLGPP stands 0.7 ± 0.074; under SPPVPPLPAPAT, 0.539 ± 0.012; under SPPYPPPPVAST, 0.707 ± 0.013.
SPQFLLPRALSP gave a protein stability index of 0.695 ± 0.0042.
In turn, SPRFSPPAILHN yielded a protein stability index of 0.71 ± 0.0091.
Under SPRKTAVIGGTT stands 0.688 ± 0.034.
Regarding SPRLPAPPPPPQ, the protein stability index was 0.702 ± 0.075.
Under SPRLPPSPPPDL stands 0.628 ± 0.023; under SPRLRSRQVALS, 0.556 ± 0.17.
SPRLSAPPPPPP came in with a protein stability index of 0.6766 ± 0.0046.
SPSLPSLNRCSL returned a protein stability index of 0.769 ± 0.016.
Under SPSPLPLSPSPL stands 0.749 ± 0.086.
Under SPSPPSFRPSLH stands 0.712 ± 0.12; under SPSPPSNPLPSP, 0.701 ± 0.024.
For the sequence SPSPSSLPPPLR, the protein stability index was 0.726 ± 0.052.
Under SPSRPQPPPLSA stands 0.738 ± 0.061.
Under SPSSPPSKCLSL stands 0.688 ± 0.039; under SPSSSPSPFPVP, 0.731 ± 0.063.
With SPSVRSPFSLPP, the protein stability index is 0.7383 ± 0.0052.
Under SPTPHTLRLLPT stands 0.662 ± 0.011; under SPTPTSLTPPDF, 0.733 ± 0.049; under SPVGCYAIIARM, 0.628 ± 0.042.
Under SPVHPSQHLWPP stands 0.615 ± 0.021; under SPVRSQPALLVV, 0.565 ± 0.0096; under SPWFRSAASTPT, 0.786 ± 0.082.
SQLAGPPLPPPT showed a protein stability index of 0.751 ± 0.021.
The sequence SRAPHPPPPTLP displayed a protein stability index of 0.711 ± 0.021.
Under SRARADTSRRRA stands 0.7061 ± 0.0059; under SRCFGGRCQVIE, 0.67 ± 0.02; under SRFPPYALAHRP, 0.716 ± 0.2.
Under SRGGKMRPGGGG stands 0.711 ± 0.012; under SRGVSIQQSIKI, 0.726 ± 0.037.
Turning to SRHGFLVNMCTL, the protein stability index turned out to be 0.683 ± 0.028.
For SRHGRTTKDFLQ, the protein stability index came out at 0.682 ± 0.014.
Sequence SRISSGKFTGAV had a protein stability index of 0.601 ± 0.041.
Under SRKKSKQYRQEK stands 0.716 ± 0.039; under SRLGFPFTGGGR, 0.6597 ± 0.0062; under SRLPPHSPVHAS, 0.787 ± 0.042.
Under SRLRFSIAPSIF stands 0.685 ± 0.022; under SRLRVVRCVSWV, 0.549 ± 0.1; under SRMRADRYWRNY, 0.622 ± 0.019.
Under SRNFSIQILRER stands 0.659 ± 0.019; under SRPPLLPTPPPS, 0.701 ± 0.047.
